Assay results reported in patent US4748122A, “2,5-diketo-D-gluconic acid reductase” (Shionogi & Co., Ltd., priority 1983, dated 1988).
Several values for one entry are separate records, joined by “and”; a condition that tells them apart may be missing. Equal entries are not always repeated.

Columns and labels:
[1] = pH stability of the enzyme (residual activities after treatment in buffers); format: physicochemical
Description: (determined on the basis of residual activities after treatments in 0.1M dimethylglutaric acid buffer for pH 4-5, in 0.1M Good buffer (PIPES) for pH 6-7 and in 0.1M Tris-HCl buffer for ph 8-9 at 28° C. for 30 minutes). Residual activity of 70% or more is recognized in pH 5-7 while only those of 30% or less are recognized in pH 4 or below, and in pH 8 or above.
Ninety-six (96) % or more of the activity is lost after being stood at pH 4 or below, or pH 8 or above and at 28° C. for 2 hours.

[2] = Isoelectric point electrophoresis of the enzyme; format: physicochemical
Description: (10) Isoelectric point: pH 4.4±0.3 (measured by isoelectric point electrophoresis).
Five (5) μl of the enzyme solution was then subjected to isoelectric point electrophoresis (gel; polyacrylamide: conditions of phoresis(a); pH interval 2.5-5; anode electrolyte=0.1M H2 SO4 cathode electrolyte=0.1M NaOH, 6W, 2,700 VH: conditions of phoresis(b); pH interval 4.0-6.5; anode electrolyte=0.04M DL-glutamic acid, cathode electrolyte=0.2M NaOH, 25W, 2,600 VH; temperature, 18°-20° C.) to give a result that the enzyme migrated in a single band at a position which corresponds to pH 4.4±0.2. From the previously-describedfacts, it was confirmed that the purified enzyme solution was one which solely contains 25DKG-Rase.

[3] = Optimum pH and range of reaction temperature of the enzyme; format: biochemical
Description: In order to clarify the relation between the reaction velocity of the 25DKG-Rase and pH, the enzymatic activities were measured by using the following buffers in place of the buffer of the reaction system in (5)-(ii).
The results of the measurements of the enzymatic activities on the substrates, Ca-25DKG and 5KF at the respective pHs are shown in Table 4 below.
The reaction velocities in the reaction system of (5)-(ii) which employs the substrate, Ca-25DKG were measured at varying temperatures from 15° to 50° C.
Enzymatic activities of 25DKG-Rases obtained from K-106 and T-13 were measured at varying pH from 4 to 9 (substrate: Ca-25DKG, reaction temperature: 30° C.).

## 2,5-diketo-D-gluconic acid reductase [25DKG-Rase]
[1]; 28° C. for 30 minutes in 0.1M buffers
  pH stability: 5-7 pH
[1]; pH 4 or below, and pH 8 or above, 28° C. for 30 minutes
  Residual activity: ≤ 30%
[1]; pH 4 or below, or pH 8 or above, 28° C. for 2 hours
  activity lost: ≥ 96%
[1]; pH 5-7, 28° C. for 30 minutes
  Residual activity: ≥ 70%
[2]
  isoelectric point: 4.4±0.2 pH and 4.4±0.3 pH
[3]
  optimum pH: 6-7 pH
